The values that follow come from article PMC5379210 (Scientific Reports, 2017).

The target in data set [1] is S. cerevisiae Gpi8 (23-306aa) C85A (S. cerevisiae) (UniProt P49018). Briefly: SEC-MALS; C85A mutant under reducing conditions.
For data set [2] the target is unchanged. Put plainly: SEC; single purified protein on Superdex 200 10/300 GL, 20 mM Tris-HCl pH 8, 150 mM NaCl, purified without reducing agent (non-reducing) or with 2.5 mM DTT; re-runs of peaks; dimer to monomers.
The target of data set [3] is S. cerevisiae Gpi8 (23-337aa) (S. cerevisiae) (UniProt P49018). The data set is described as above.
Data set [4] deals with the molecule itself. The description is as above.

Where a chain is given by its changes, count along the chain named. Names and notes keep the numbering of the source.

On to “S. cerevisiae Gpi8 (23-306aa) C85A (from UniProt P49018 23-306) (domain or fragment)”, for which the stoichiometry N in data set [1] and in data set [2] was 2 in each case. In the case of “S. cerevisiae Gpi8 (23-337aa) (from UniProt P49018 23-337) (domain or fragment)”, in data set [3], the stoichiometry N was determined as 2.

B1: S. cerevisiae Gpi8 (23-359aa) (domain or fragment, UniProt P49018 23-359, looked up)
chain: NNTDAAHEVIATNTNNWAVLVSTSRFWFNYRHMANVLSMYRTVKRLGIPDSQIILMLSDDVACNSRNLFPGSVFNNKDHAIDLYGDSVEVDYRGYEVTVENFIRLLTDRWTEDHPKSKRLLTDENSNIFIYMTGHGGDDFLKFQDAEEIASEDIADAFQQMYEKKRYNEIFFMIDTCQANTMYSKFYSPNILAVGSSEMDESSYSHHSDVEIGVAVIDRFTYYCLDFLEQIDKNSTLTLQDLFDSFTFEKIHSHVGVRTDLFDRNPSEVLITDFFANVQNVIPDDSKPLSVSHYHHYKDHIDTAQYELNNNVLDLALETYRKNNQSSKIEKKIKDIK
notes: S. cerevisiae Gpi8, C-terminal truncation of the luminal domain, residues 23-359; also called S. cerevisiae Gpi8 (23-359aa)^BL21
Turning to B1, the “stoichiometry N” value in data set [4] is 2.

B2: S. cerevisiae Gpi8 (23-379aa) C373A (domain or fragment, UniProt P49018 23-379, looked up)
chain: NNTDAAHEVIATNTNNWAVLVSTSRFWFNYRHMANVLSMYRTVKRLGIPDSQIILMLSDDVACNSRNLFPGSVFNNKDHAIDLYGDSVEVDYRGYEVTVENFIRLLTDRWTEDHPKSKRLLTDENSNIFIYMTGHGGDDFLKFQDAEEIASEDIADAFQQMYEKKRYNEIFFMIDTCQANTMYSKFYSPNILAVGSSEMDESSYSHHSDVEIGVAVIDRFTYYCLDFLEQIDKNSTLTLQDLFDSFTFEKIHSHVGVRTDLFDRNPSEVLITDFFANVQNVIPDDSKPLSVSHYHHYKDHIDTAQYELNNNVLDLALETYRKNNQSSKIEKKIKDIKSTSVLDVDIDSNEAFFTSFK
notes: S. cerevisiae Gpi8, full-length luminal construct, residues 23-379, with C373A; also called C373A mutant
Regarding B2, the “stoichiometry N” value in data set [4] came out at 2.

B3: S. cerevisiae Gpi8 (23-306aa), caspase-like domain, insect cell expressed (N-glycosylated) (domain or fragment, UniProt P49018 23-306, looked up)
chain: NNTDAAHEVIATNTNNWAVLVSTSRFWFNYRHMANVLSMYRTVKRLGIPDSQIILMLSDDVACNSRNLFPGSVFNNKDHAIDLYGDSVEVDYRGYEVTVENFIRLLTDRWTEDHPKSKRLLTDENSNIFIYMTGHGGDDFLKFQDAEEIASEDIADAFQQMYEKKRYNEIFFMIDTCQANTMYSKFYSPNILAVGSSEMDESSYSHHSDVEIGVAVIDRFTYYCLDFLEQIDKNSTLTLQDLFDSFTFEKIHSHVGVRTDLFDRNPSEVLITDFFANVQNVIPD
modifications: N-glycosylated (two predicted N-glycosylation sites in 23-306)
notes: The construct has an N-terminal gp67 signal peptide for secretion (pFastBac-dual); Runs as a disulfide-linked dimer; also called insect cell expressed Gpi8; not shown: 6xHis, C-terminal, kept
Regarding B3, the “stoichiometry N” value in data set [4] was 2.

B4: S. cerevisiae Gpi8 (23-306aa), insect cell expressed in the presence of tunicamycin (nonglycosylated) (domain or fragment, UniProt P49018 23-306, looked up)
chain: B3 chain
notes: N-terminal gp67 signal peptide in the construct; also called nonglycosylated Gpi8; insect cell expressed Gpi8 in the presence of tunicamycin
Consider B4, for which the “stoichiometry N” value in data set [4] came to 2.

B5: S. cerevisiae Gpi8 (23-306aa), E. coli BL21 expressed (domain or fragment, UniProt P49018 23-306, looked up)
chain: B3 chain
notes: Cloned into NdeI-XhoI sites of pET26a (so in the source); also called E. coli expressed Gpi8
For B5, the “stoichiometry N” value in data set [4] came to 2.

B6: S. cerevisiae Gpi8 (23-306aa), E. coli SHuffle expressed (domain or fragment, UniProt P49018 23-306, looked up)
chain: B3 chain
notes: Same construct as m12, other E. coli strain (constitutively expresses DsbC); also called E. coli Shuffle-expressed Gpi8
For B6, the “stoichiometry N” value in data set [4] amounted to 2.

B7: S. cerevisiae Gpi8 (23-306aa) C246A (domain or fragment, UniProt P49018 23-306, looked up)
chain: B3 chain with C224A
notes: the methods print Cys244Ala
For the molecule B7, the “stoichiometry N” value in data set [4] was found to be 2.

B8: S. cerevisiae Gpi8 (23-306aa) C199A (domain or fragment, UniProt P49018 23-306, looked up)
chain: B3 chain with C177A
On to B8, for which, in data set [4], the “stoichiometry N” value came out at 2.
